Test results from US11419921B2, “Methods of treating neurological disorders” (EnClear Therapies, Inc., priority 2018, dated 2022).

What was measured:
iCell® motor neurons = assay: Toxicity of (GR)10, untreated or protease-treated, on iCell motor neurons; format: cell-based; conditions: (GR)10 concentrations of 25, 50 and 100 μM
Method: 200 μM of (GR)10 were diluted in human cerebrospinal fluid (CSF) and 400 μL were applied to each immobilized proteases. The reaction was incubated 5 minutes at room temperature with end-to-end mixing. Columns were spun down 1 minute at 1,000 Xg to recover digested GR dipeptides. Columns were washed with 12 resin volumes of PBS. The procedure was repeated with 60 minutes digestion time. 100 μL of each samples were transferred to a clean tube, flash-frozen and subsequently used for LC/MS quantification of GR repeats of different lengths. The remaining 300 μL of each samples were flash-frozen and used to assess neuron toxicity.
300 μL of CSF were applied to each immobilized proteases and incubated 60 minutes at room temperature with end-to-end mixing. Columns were spun down 1 minute at 1,000 Xg to recover treated CSF. Samples were flash-frozen and subsequently used to test neuron toxicity.
This example describes the reduced toxicity of (GR)10 on in vitro neuronal cells by digestion of (GR)10 with proteases.

[1] = 1 TAME unit = 1 μmole TAME hydrolyzed/min at pH 8.2, 25° C.; cited from earlier work
(GR)10 = assay: Cleavage of (GR)10 by commercial immobilized trypsin (agarose resin) in PBS; format: biochemical; conditions: (GR)10 50 μM
Method: • Immobilized TPCK-trypsin on agarose resin; ThermoFisher Cat #20230 Lot #TA264999; Activity: 555 TAME units/mL of gel; the resin was washed with PBS • TPCK-trypsin; ThermoFisher Cat #20233 Lot #SB241185; Activity: 308 TAME units/mg of protein • NOTE: One TAME unit is equal to 1 μmole of TAME (p-toluenesulfonyl-L-arginine methyl ester in the presence of Ca2+) hydrolyzed/min at pH 8.2, 25° C. (One TAME unit=19.2 National Formulatory units=57.5 BAEE units
110 μL of 50 μM (GR)10 dipeptide repeats prepared in PBS was added to immobilized trypsin in 0.8 mL centrifuge columns and incubated for the prescribed time at room temperature with end-to-end mixing resin. Columns were spun down 1 minute at 1,000 Xg to recover digested GR dipeptides. Columns were washed with 110 μL of PBS to increase (GR)10 recovery. 100 μL of each samples were transferred to a new tube and 5 μL of 10% TFA followed by 300 μL of Dilution Solution were added. The reaction mixtures were analyzed by LC/MS to determine the concentration of GR repeats of different lengths.

B1: resins having immobilized clostripain: clostripain immobilized on agarose resin (protein, UniProt P09870 51-181; P09870 191-526, looked up)
Clostripain light chain: NKNQKVTIMYYCDADNNLEGSLLNDIEEMKTGYKDSPNLNLIALVDRSPRYSSDEKVLGEDFSDTRLYKIEHNKANRLDGKNEFPEISTTSKYEANMGDPEVLKKFIDYCKSNYEADKYVLIMANHGGGAR
Clostripain heavy chain: AICWDDSNLDKNGEADCLYMGEISDHLTEKQSVDLLAFDACLMGTAEVAYQYRPGNGGFSADTLVASSPVVWGPGFKYDKIFDRIKAGGGTNNEDDLTLGGKEQNFDPATITNEQLGALFVEEQRDSTHANGRYDQHLSFYDLKKAESVKRAIDNLAVNLSNENKKSEIEKLRGSGIHTDLMHYFDEYSEGEWVEYPYFDVYDLCEKINKSENFSSKTKDLASNAMNKLNEMIVYSFGDPSNNFKEGKNGLSIFLPNGDKKYSTYYTSTKIPHWTMQSWYNSIDTVKYGLNPYGKLSWCKDGQDPEINKVGNWFELLDSWFDKTNDVTGGVNHYQW
modifications: immobilized on agarose resin
For B1, the “Effect of protease treatment of (GR)10 on (GR)10 toxicity” value (iCell® motor neurons) was “abrogation of (GR)10 toxicity”.

B2: Immobilized trypsin: Immobilized TPCK-trypsin on agarose resin; ThermoFisher Cat #20230 (protein, UniProt P00760 24-246, looked up)
Serine protease 1: IVGGYTCGANTVPYQVSLNSGYHFCGGSLINSQWVVSAAHCYKSGIQVRLGEDNINVVEGNEQFISASKSIVHPSYNSNTLNNDIMLIKLKSAASLNSRVASISLPTSCASAGTQCLISGWGNTKSSGTSYPDVLKCLKAPILSDSSCKSAYPGQITSNMFCAGYLEGGKDSCQGDSGGPVVCSGKLQGIVSWGSGCAQKNKPGVYTKVCNYVSWIKQTIASN
modifications: TPCK-treated, immobilized on agarose resin
For B2, the Activity [1] is listed as 555 TAME units/mL of gel, the “(GR)1 concentration” value ((GR)10; 0.625 TAME Units, 0 min) is listed as “BLQ” and the “(GR)2 concentration” value ((GR)10; 0.625 TAME Units, 0 min) is listed as “BLQ”. The “(GR)4 concentration” value ((GR)10; 0.625 TAME Units, 0 min) was 0.1 µM, the “(GR)6 concentration” value ((GR)10; 0.625 TAME Units, 0 min) was “BLQ” and the “(GR)8 concentration” value ((GR)10; 0.625 TAME Units, 0 min) was 1.0 µM. For the same molecule, the “(GR)10 concentration” value ((GR)10; 0.625 TAME Units, 0 min) was 68.4 µM, the “(GR)1 concentration” value ((GR)10; 0.625 TAME Units, 5 min) was 248.4 µM and the “(GR)2 concentration” value ((GR)10; 0.625 TAME Units, 5 min) was 114.9 µM. For the same molecule, the “(GR)4 concentration” value ((GR)10; 0.625 TAME Units, 5 min) was 0.3 µM, the “(GR)6 concentration” value ((GR)10; 0.625 TAME Units, 5 min) was 0.1 µM and the “(GR)8 concentration” value ((GR)10; 0.625 TAME Units, 5 min) was “BLQ”. For the same molecule, the “(GR)10 concentration” value ((GR)10; 0.625 TAME Units, 5 min) was 3.1 µM, the “(GR)1 concentration” value ((GR)10; 0.625 TAME Units, 10 min) was 307.0 µM and the “(GR)2 concentration” value ((GR)10; 0.625 TAME Units, 10 min) was 89.6 µM. The “(GR)4 concentration” value ((GR)10; 0.625 TAME Units, 10 min) was 0.2 µM, the “(GR)6 concentration” value ((GR)10; 0.625 TAME Units, 10 min) was “BLQ” and the “(GR)8 concentration” value ((GR)10; 0.625 TAME Units, 10 min) was “BLQ”. For the same molecule, the “(GR)10 concentration” value ((GR)10; 0.625 TAME Units, 10 min) was 2.1 µM, the “(GR)1 concentration” value ((GR)10; 0.625 TAME Units, 30 min) was 411.7 µM and the “(GR)2 concentration” value ((GR)10; 0.625 TAME Units, 30 min) was 11.8 µM. For the same molecule, the “(GR)4 concentration” value ((GR)10; 0.625 TAME Units, 30 min) was 0.1 µM, the “(GR)6 concentration” value ((GR)10; 0.625 TAME Units, 30 min) was “BLQ” and the “(GR)8 concentration” value ((GR)10; 0.625 TAME Units, 30 min) was “BLQ”. For the same molecule, the “(GR)10 concentration” value ((GR)10; 0.625 TAME Units, 30 min) was 0.6 µM, the “(GR)1 concentration” value ((GR)10; 0.625 TAME Units, 60 min) was 465.4 µM and the “(GR)2 concentration” value ((GR)10; 0.625 TAME Units, 60 min) was 5.6 µM. The “(GR)4 concentration” value ((GR)10; 0.625 TAME Units, 60 min) was “BLQ”, the “(GR)6 concentration” value ((GR)10; 0.625 TAME Units, 60 min) was “BLQ” and the “(GR)8 concentration” value ((GR)10; 0.625 TAME Units, 60 min) was “BLQ”. For the same molecule, the “(GR)10 concentration” value ((GR)10; 0.625 TAME Units, 60 min) was 1.0 µM, the “(GR)1 concentration” value ((GR)10; 0.625 TAME Units, 120 min) was 385.8 µM and the “(GR)2 concentration” value ((GR)10; 0.625 TAME Units, 120 min) was 1.0 µM. The “(GR)4 concentration” value ((GR)10; 0.625 TAME Units, 120 min) was “BLQ”, the “(GR)6 concentration” value ((GR)10; 0.625 TAME Units, 120 min) was “BLQ” and the “(GR)8 concentration” value ((GR)10; 0.625 TAME Units, 120 min) was “BLQ”. The “(GR)10 concentration” value ((GR)10; 0.625 TAME Units, 120 min) was 0.1 µM, the “(GR)1 concentration” value ((GR)10; 6.25 TAME Units, 0 min) was 0.2 µM and the “(GR)2 concentration” value ((GR)10; 6.25 TAME Units, 0 min) was 0.2 µM. For the same molecule, the “(GR)4 concentration” value ((GR)10; 6.25 TAME Units, 0 min) was 0.1 µM, the “(GR)6 concentration” value ((GR)10; 6.25 TAME Units, 0 min) was “BLQ” and the “(GR)8 concentration” value ((GR)10; 6.25 TAME Units, 0 min) was “BLQ”. For the same molecule, the “(GR)10 concentration” value ((GR)10; 6.25 TAME Units, 0 min) was 32.7 µM, the “(GR)1 concentration” value ((GR)10; 6.25 TAME Units, 5 min) was 391.0 µM and the “(GR)2 concentration” value ((GR)10; 6.25 TAME Units, 5 min) was 1.2 µM. For the same molecule, the “(GR)4 concentration” value ((GR)10; 6.25 TAME Units, 5 min) was “BLQ”, the “(GR)6 concentration” value ((GR)10; 6.25 TAME Units, 5 min) was “BLQ” and the “(GR)8 concentration” value ((GR)10; 6.25 TAME Units, 5 min) was “BLQ”. For the same molecule, the “(GR)10 concentration” value ((GR)10; 6.25 TAME Units, 5 min) was 0.9 µM, the “(GR)1 concentration” value ((GR)10; 6.25 TAME Units, 10 min) was 505.5 µM and the “(GR)2 concentration” value ((GR)10; 6.25 TAME Units, 10 min) was 3.8 µM. For the same molecule, the “(GR)4 concentration” value ((GR)10; 6.25 TAME Units, 10 min) was 0.1 µM, the “(GR)6 concentration” value ((GR)10; 6.25 TAME Units, 10 min) was “BLQ” and the “(GR)8 concentration” value ((GR)10; 6.25 TAME Units, 10 min) was “BLQ”. The “(GR)10 concentration” value ((GR)10; 6.25 TAME Units, 10 min) was 1.6 µM, the “(GR)1 concentration” value ((GR)10; 6.25 TAME Units, 30 min) was 480.2 µM and the “(GR)2 concentration” value ((GR)10; 6.25 TAME Units, 30 min) was 0.2 µM. The “(GR)4 concentration” value ((GR)10; 6.25 TAME Units, 30 min) was “BLQ”, the “(GR)6 concentration” value ((GR)10; 6.25 TAME Units, 30 min) was “BLQ” and the “(GR)8 concentration” value ((GR)10; 6.25 TAME Units, 30 min) was “BLQ”. The “(GR)10 concentration” value ((GR)10; 6.25 TAME Units, 30 min) was 0.9 µM, the “(GR)1 concentration” value ((GR)10; 6.25 TAME Units, 60 min) was 409.6 µM and the “(GR)2 concentration” value ((GR)10; 6.25 TAME Units, 60 min) was 0.1 µM. For the same molecule, the “(GR)4 concentration” value ((GR)10; 6.25 TAME Units, 60 min) was “BLQ”, the “(GR)6 concentration” value ((GR)10; 6.25 TAME Units, 60 min) was “BLQ” and the “(GR)8 concentration” value ((GR)10; 6.25 TAME Units, 60 min) was “BLQ”. For the same molecule, the “(GR)10 concentration” value ((GR)10; 6.25 TAME Units, 60 min) was 0.2 µM, the “(GR)1 concentration” value ((GR)10; 6.25 TAME Units, 120 min) was 396.0 µM and the “(GR)2 concentration” value ((GR)10; 6.25 TAME Units, 120 min) was 0.2 µM. For the same molecule, the “(GR)4 concentration” value ((GR)10; 6.25 TAME Units, 120 min) was “BLQ”, the “(GR)6 concentration” value ((GR)10; 6.25 TAME Units, 120 min) was 0.1 µM and the “(GR)8 concentration” value ((GR)10; 6.25 TAME Units, 120 min) was “BLQ”. The “(GR)10 concentration” value ((GR)10; 6.25 TAME Units, 120 min) was 0.1 µM.

B3: TPCK-trypsin: TPCK-trypsin; ThermoFisher Cat #20233 (protein, UniProt P00760 24-246, looked up)
Serine protease 1: IVGGYTCGANTVPYQVSLNSGYHFCGGSLINSQWVVSAAHCYKSGIQVRLGEDNINVVEGNEQFISASKSIVHPSYNSNTLNNDIMLIKLKSAASLNSRVASISLPTSCASAGTQCLISGWGNTKSSGTSYPDVLKCLKAPILSDSSCKSAYPGQITSNMFCAGYLEGGKDSCQGDSGGPVVCSGKLQGIVSWGSGCAQKNKPGVYTKVCNYVSWIKQTIASN
modifications: TPCK-treated
For B3, the Activity [1] is listed as 308 TAME units/mg of protein.
